Measurements published in patent US20140206609A1 (Sanofi, published 2014).
*1 amine or outer side, *2 acyl side, *3 side chain or, on linkers, in order; H or OH if unused. Where no end group is shown, it is not given here. Side-chain parts run from the residue outwards. [ ]: non-standard residue; d: D form. The star is where a group is joined. γGlu = O=C(O)[C@H](CCC(=O)[*:2])N[*:1]; Palmitoyl = CCCCCCCCCCCCCCCC(=O)*; Aib = CC(C)(N)C(=O)O

Experiments:
Test in all cases: cell-based or functional assay
human GLP-1 receptor = human GLP-1 receptor (human, UniProt P43220 24-463)
human GIP receptor = biological target: T1, human GIP receptor (human, UniProt P48546 22-466)
T1 sequence (looked up): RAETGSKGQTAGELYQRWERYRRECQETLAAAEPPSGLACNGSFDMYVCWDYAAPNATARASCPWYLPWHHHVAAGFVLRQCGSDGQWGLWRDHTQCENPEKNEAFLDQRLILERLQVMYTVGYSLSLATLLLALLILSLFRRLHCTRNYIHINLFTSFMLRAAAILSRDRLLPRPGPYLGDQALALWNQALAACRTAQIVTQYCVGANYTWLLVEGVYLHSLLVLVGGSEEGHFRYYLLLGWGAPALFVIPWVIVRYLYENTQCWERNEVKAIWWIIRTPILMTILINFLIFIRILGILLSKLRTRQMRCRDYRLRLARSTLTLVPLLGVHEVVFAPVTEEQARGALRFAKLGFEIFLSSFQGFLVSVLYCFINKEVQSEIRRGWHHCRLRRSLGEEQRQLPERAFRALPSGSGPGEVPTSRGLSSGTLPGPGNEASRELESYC

human glucagon receptor = human glucagon receptor (human, UniProt P47871 26-477)
Sequence of human glucagon receptor (P47871 26-477): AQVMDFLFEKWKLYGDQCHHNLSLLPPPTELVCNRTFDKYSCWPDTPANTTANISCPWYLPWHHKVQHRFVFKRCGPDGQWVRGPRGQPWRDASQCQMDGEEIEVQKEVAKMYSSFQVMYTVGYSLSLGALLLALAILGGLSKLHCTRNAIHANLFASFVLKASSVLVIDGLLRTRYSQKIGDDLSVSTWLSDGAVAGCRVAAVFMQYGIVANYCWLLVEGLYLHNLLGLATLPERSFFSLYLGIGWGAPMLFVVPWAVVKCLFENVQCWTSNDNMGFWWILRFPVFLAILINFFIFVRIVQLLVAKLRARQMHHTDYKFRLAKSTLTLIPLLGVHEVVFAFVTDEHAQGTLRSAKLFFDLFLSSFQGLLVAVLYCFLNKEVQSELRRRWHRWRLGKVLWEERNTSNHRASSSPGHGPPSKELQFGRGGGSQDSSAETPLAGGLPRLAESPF

B1: SEQ ID NO: 37 (peptide)
peptide: Y[Aib]QGTFTSDLSIQK([γGlu-Palmitoyl])DSRAAQDFIEWLKAGGPSSGAPPPS-NH2
modifications: N-terminus assumed
SMILES: CCCCCCCCCCCCCCCC(=O)N[C@@H](CCC(=O)NCCCC[C@H](NC(=O)[C@H](CCC(N)=O)NC(=O)[C@@H](NC(=O)[C@H](CO)NC(=O)[C@H](CC(C)C)NC(=O)[C@H](CC(=O)O)NC(=O)[C@H](CO)NC(=O)[C@@H](NC(=O)[C@H](Cc1ccccc1)NC(=O)[C@@H](NC(=O)CNC(=O)[C@H](CCC(N)=O)NC(=O)C(C)(C)NC(=O)[C@@H](N)Cc1ccc(O)cc1)[C@@H](C)O)[C@@H](C)O)[C@@H](C)CC)C(=O)N[C@@H](CC(=O)O)C(=O)N[C@@H](CO)C(=O)N[C@@H](CCCNC(=N)N)C(=O)N[C@@H](C)C(=O)N[C@@H](C)C(=O)N[C@@H](CCC(N)=O)C(=O)N[C@@H](CC(=O)O)C(=O)N[C@@H](Cc1ccccc1)C(=O)N[C@H](C(=O)N[C@@H](CCC(=O)O)C(=O)N[C@@H](Cc1c[nH]c2ccccc12)C(=O)N[C@@H](CC(C)C)C(=O)N[C@@H](CCCCN)C(=O)N[C@@H](C)C(=O)NCC(=O)NCC(=O)N1CCC[C@H]1C(=O)N[C@@H](CO)C(=O)N[C@@H](CO)C(=O)NCC(=O)N[C@@H](C)C(=O)N1CCC[C@H]1C(=O)N1CCC[C@H]1C(=O)N1CCC[C@H]1C(=O)N[C@@H](CO)C(N)=O)[C@@H](C)CC)C(=O)O
Human GLP-1 receptor
  EC50 hGLP-1 R [pM]: 8.9 pM
Human GIP receptor
  EC50 hGIP R [pM]: 21.2 pM
Human glucagon receptor
  EC50 hGLUC R [pM]: 32 pM

B2: SEQ ID NO: 36 (peptide)
peptide: Y[Aib]EGTFTSDLSIQK([γGlu-Palmitoyl])EKRAA[Aib]EFIEWLKAGGPSSGAPPPS-NH2
modifications: N-terminus assumed
SMILES: CCCCCCCCCCCCCCCC(=O)N[C@@H](CCC(=O)NCCCC[C@H](NC(=O)[C@H](CCC(N)=O)NC(=O)[C@@H](NC(=O)[C@H](CO)NC(=O)[C@H](CC(C)C)NC(=O)[C@H](CC(=O)O)NC(=O)[C@H](CO)NC(=O)[C@@H](NC(=O)[C@H](Cc1ccccc1)NC(=O)[C@@H](NC(=O)CNC(=O)[C@H](CCC(=O)O)NC(=O)C(C)(C)NC(=O)[C@@H](N)Cc1ccc(O)cc1)[C@@H](C)O)[C@@H](C)O)[C@@H](C)CC)C(=O)N[C@@H](CCC(=O)O)C(=O)N[C@@H](CCCCN)C(=O)N[C@@H](CCCNC(=N)N)C(=O)N[C@@H](C)C(=O)N[C@@H](C)C(=O)NC(C)(C)C(=O)N[C@@H](CCC(=O)O)C(=O)N[C@@H](Cc1ccccc1)C(=O)N[C@H](C(=O)N[C@@H](CCC(=O)O)C(=O)N[C@@H](Cc1c[nH]c2ccccc12)C(=O)N[C@@H](CC(C)C)C(=O)N[C@@H](CCCCN)C(=O)N[C@@H](C)C(=O)NCC(=O)NCC(=O)N1CCC[C@H]1C(=O)N[C@@H](CO)C(=O)N[C@@H](CO)C(=O)NCC(=O)N[C@@H](C)C(=O)N1CCC[C@H]1C(=O)N1CCC[C@H]1C(=O)N1CCC[C@H]1C(=O)N[C@@H](CO)C(N)=O)[C@@H](C)CC)C(=O)O
Human GLP-1 receptor
  EC50 hGLP-1 R [pM]: 3.4 pM
Human GIP receptor
  EC50 hGIP R [pM]: 6.4 pM
Human glucagon receptor
  EC50 hGLUC R [pM]: 5780 pM
